From patent US20220298260A1 (MYTHIC THERAPEUTICS, published 2022)

B1: MYT2251 (antibody, V domains shown)
VH: EVQLVESGGGLVQPGGSLRLSCAASGFNIRTQSIHWVRQAPGKGLEWIGDIFPIDGITDYADSVKHRFTISADTSKNTAYLQMNSLRAEDTAVYYCARGSWSWPSGMDYYLDYWGQGTLVTVSS
VL: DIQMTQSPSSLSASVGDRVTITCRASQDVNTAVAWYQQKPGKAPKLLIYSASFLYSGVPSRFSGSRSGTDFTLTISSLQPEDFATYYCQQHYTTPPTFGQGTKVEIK
notes: IgG
B2: MYT4508 (antibody, V domains shown)
VH: EVQLVESGGGLVQPGGSLRLSCAASGFNIRTQSIHWVRQAPGKGLEWIGDIFPIDGITDYADSVKGRFTISADTSKNTAYLQMNSLRAEDTAVYYCARGSWSWPSGMDYYLDYWGQGTLVTVSS
VL: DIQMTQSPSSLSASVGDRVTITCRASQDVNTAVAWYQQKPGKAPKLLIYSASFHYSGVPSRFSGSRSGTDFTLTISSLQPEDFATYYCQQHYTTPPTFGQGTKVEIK
notes: IgG
B3: MYT4511 (antibody, V domains shown)
VH: EVQLVESGGGLVQPGGSLRLSCAASGFNIRTQSIHWVRQAPGKGLEWIGDIFPIDGITDYADSVKGRFTISADTSKNTAYLQMNSLRAEDTAVYYCARGSWSWPSGMDYYLDYWGQGTLVTVSS
VL: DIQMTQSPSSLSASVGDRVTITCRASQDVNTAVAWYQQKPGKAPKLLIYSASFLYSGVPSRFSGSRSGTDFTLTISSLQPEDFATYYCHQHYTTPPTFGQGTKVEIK
notes: IgG
B4: MYT2268 (antibody, V domains shown)
VH: EVQLVESGGGLVQPGGSLRLSCAASGFNIRTQSIHWVRQAPGKGLEWIGDIFPIDGITDYADSVKGRFTISADTSKNTAYLQMNSLRAEDTAVYYCARGSWSWPSGMDYYLDHWGQGTLVTVSS
VL: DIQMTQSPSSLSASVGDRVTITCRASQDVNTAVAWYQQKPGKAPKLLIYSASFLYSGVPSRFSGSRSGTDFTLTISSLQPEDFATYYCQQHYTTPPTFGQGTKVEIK
notes: IgG
B5: MYT2256 (antibody, V domains shown)
VH: EVQLVESGGGLVQPGGSLRLSCAASGFNIRTQSIHWVRQAPGKGLEWIGDIFPIDGITDYADSVKGRFTISADTSKNTAYLQMNSLRAEDTAVYYCARGSHSWPSGMDYYLDYWGQGTLVTVSS
VL: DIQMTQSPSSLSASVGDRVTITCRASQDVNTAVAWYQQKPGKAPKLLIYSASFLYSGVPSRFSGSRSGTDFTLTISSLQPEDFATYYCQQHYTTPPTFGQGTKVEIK
notes: IgG
B6: MYT4494 (antibody, V domains shown)
VH: EVQLVESGGGLVQPGGSLRLSCAASGFNIRTQSIHWVRQAPGKGLEWIGDIFPIDGITDYADSVKGRFTISADTSKNTAYLQMNSLRAEDTAVYYCARGSWSWPSGMDYYLDYWGQGTLVTVSS
VL: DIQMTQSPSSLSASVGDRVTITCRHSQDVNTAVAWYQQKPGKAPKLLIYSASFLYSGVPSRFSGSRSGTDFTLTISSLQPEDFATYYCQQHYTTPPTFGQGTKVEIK
notes: IgG
B7: MYT2257 (antibody, V domains shown)
VH: EVQLVESGGGLVQPGGSLRLSCAASGFNIRTQSIHWVRQAPGKGLEWIGDIFPIDGITDYADSVKGRFTISADTSKNTAYLQMNSLRAEDTAVYYCARGSWHWPSGMDYYLDYWGQGTLVTVSS
VL: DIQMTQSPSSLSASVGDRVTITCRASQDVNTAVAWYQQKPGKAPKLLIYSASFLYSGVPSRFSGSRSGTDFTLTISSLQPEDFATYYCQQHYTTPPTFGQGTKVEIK
notes: IgG
B8: MYT4512 (antibody, V domains shown)
VH: EVQLVESGGGLVQPGGSLRLSCAASGFNIRTQSIHWVRQAPGKGLEWIGDIFPIDGITDYADSVKGRFTISADTSKNTAYLQMNSLRAEDTAVYYCARGSWSWPSGMDYYLDYWGQGTLVTVSS
VL: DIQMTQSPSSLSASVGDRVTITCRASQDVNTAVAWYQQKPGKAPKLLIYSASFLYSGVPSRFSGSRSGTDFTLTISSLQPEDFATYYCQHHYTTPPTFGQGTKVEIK
notes: IgG
B9: MYT4496 (antibody, V domains shown)
VH: EVQLVESGGGLVQPGGSLRLSCAASGFNIRTQSIHWVRQAPGKGLEWIGDIFPIDGITDYADSVKGRFTISADTSKNTAYLQMNSLRAEDTAVYYCARGSWSWPSGMDYYLDYWGQGTLVTVSS
VL: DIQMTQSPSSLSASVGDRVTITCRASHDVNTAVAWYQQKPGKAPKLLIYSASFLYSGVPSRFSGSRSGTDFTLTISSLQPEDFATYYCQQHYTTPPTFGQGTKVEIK
notes: IgG
B10: MYT2267 (antibody, V domains shown)
VH: EVQLVESGGGLVQPGGSLRLSCAASGFNIRTQSIHWVRQAPGKGLEWIGDIFPIDGITDYADSVKGRFTISADTSKNTAYLQMNSLRAEDTAVYYCARGSWSWPSGMDYYLHYWGQGTLVTVSS
VL: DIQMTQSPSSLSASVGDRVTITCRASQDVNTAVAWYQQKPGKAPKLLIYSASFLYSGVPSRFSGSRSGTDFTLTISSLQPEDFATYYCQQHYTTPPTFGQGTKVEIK
notes: IgG
B11: MYT4495 (antibody, V domains shown)
VH: EVQLVESGGGLVQPGGSLRLSCAASGFNIRTQSIHWVRQAPGKGLEWIGDIFPIDGITDYADSVKGRFTISADTSKNTAYLQMNSLRAEDTAVYYCARGSWSWPSGMDYYLDYWGQGTLVTVSS
VL: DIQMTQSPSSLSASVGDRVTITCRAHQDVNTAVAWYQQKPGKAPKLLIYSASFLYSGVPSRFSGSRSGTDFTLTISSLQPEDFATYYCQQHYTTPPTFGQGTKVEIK
notes: IgG
B12: MYT4498 (antibody, V domains shown)
VH: EVQLVESGGGLVQPGGSLRLSCAASGFNIRTQSIHWVRQAPGKGLEWIGDIFPIDGITDYADSVKGRFTISADTSKNTAYLQMNSLRAEDTAVYYCARGSWSWPSGMDYYLDYWGQGTLVTVSS
VL: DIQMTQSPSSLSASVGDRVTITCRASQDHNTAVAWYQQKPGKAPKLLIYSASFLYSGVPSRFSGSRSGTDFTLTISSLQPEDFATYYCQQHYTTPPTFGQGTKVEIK
notes: IgG
B13: MYT2265 (antibody, V domains shown)
VH: EVQLVESGGGLVQPGGSLRLSCAASGFNIRTQSIHWVRQAPGKGLEWIGDIFPIDGITDYADSVKGRFTISADTSKNTAYLQMNSLRAEDTAVYYCARGSWSWPSGMDYHLDYWGQGTLVTVSS
VL: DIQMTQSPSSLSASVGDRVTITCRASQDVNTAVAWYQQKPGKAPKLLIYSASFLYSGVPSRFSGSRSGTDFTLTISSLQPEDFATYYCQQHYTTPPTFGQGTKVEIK
notes: IgG
B14: MYT4510 (antibody, V domains shown)
VH: EVQLVESGGGLVQPGGSLRLSCAASGFNIRTQSIHWVRQAPGKGLEWIGDIFPIDGITDYADSVKGRFTISADTSKNTAYLQMNSLRAEDTAVYYCARGSWSWPSGMDYYLDYWGQGTLVTVSS
VL: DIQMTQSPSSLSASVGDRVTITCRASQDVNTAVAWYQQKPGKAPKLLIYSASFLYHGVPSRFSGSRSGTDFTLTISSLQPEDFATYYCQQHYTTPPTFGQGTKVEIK
notes: IgG
B15: MYT4500 (antibody, V domains shown)
VH: EVQLVESGGGLVQPGGSLRLSCAASGFNIRTQSIHWVRQAPGKGLEWIGDIFPIDGITDYADSVKGRFTISADTSKNTAYLQMNSLRAEDTAVYYCARGSWSWPSGMDYYLDYWGQGTLVTVSS
VL: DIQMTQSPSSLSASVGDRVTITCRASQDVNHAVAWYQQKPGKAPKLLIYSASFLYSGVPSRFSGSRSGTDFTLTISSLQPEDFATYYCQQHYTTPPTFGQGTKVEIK
notes: IgG
B16: MYT2262 (antibody, V domains shown)
VH: EVQLVESGGGLVQPGGSLRLSCAASGFNIRTQSIHWVRQAPGKGLEWIGDIFPIDGITDYADSVKGRFTISADTSKNTAYLQMNSLRAEDTAVYYCARGSWSWPSGHDYYLDYWGQGTLVTVSS
VL: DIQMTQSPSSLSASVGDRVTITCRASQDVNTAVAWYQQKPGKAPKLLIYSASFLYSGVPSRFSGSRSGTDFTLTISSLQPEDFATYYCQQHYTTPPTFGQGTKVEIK
notes: IgG
B17: MYT4506 (antibody, V domains shown)
VH: EVQLVESGGGLVQPGGSLRLSCAASGFNIRTQSIHWVRQAPGKGLEWIGDIFPIDGITDYADSVKGRFTISADTSKNTAYLQMNSLRAEDTAVYYCARGSWSWPSGMDYYLDYWGQGTLVTVSS
VL: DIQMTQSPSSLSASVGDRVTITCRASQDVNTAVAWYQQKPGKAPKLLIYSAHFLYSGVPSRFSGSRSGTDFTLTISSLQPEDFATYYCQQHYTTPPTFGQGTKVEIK
notes: IgG
B18: MYT2258 (antibody, V domains shown)
VH: EVQLVESGGGLVQPGGSLRLSCAASGFNIRTQSIHWVRQAPGKGLEWIGDIFPIDGITDYADSVKGRFTISADTSKNTAYLQMNSLRAEDTAVYYCARGSWSHPSGMDYYLDYWGQGTLVTVSS
VL: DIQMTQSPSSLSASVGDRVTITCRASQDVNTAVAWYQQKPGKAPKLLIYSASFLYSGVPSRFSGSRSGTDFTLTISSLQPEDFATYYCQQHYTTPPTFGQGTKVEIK
notes: IgG
B19: MYT4502 (antibody, V domains shown)
VH: EVQLVESGGGLVQPGGSLRLSCAASGFNIRTQSIHWVRQAPGKGLEWIGDIFPIDGITDYADSVKGRFTISADTSKNTAYLQMNSLRAEDTAVYYCARGSWSWPSGMDYYLDYWGQGTLVTVSS
VL: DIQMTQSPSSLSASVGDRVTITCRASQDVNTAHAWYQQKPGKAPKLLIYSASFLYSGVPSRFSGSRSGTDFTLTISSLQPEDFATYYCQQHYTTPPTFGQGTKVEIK
notes: IgG
B20: MYT2264 (antibody, V domains shown)
VH: EVQLVESGGGLVQPGGSLRLSCAASGFNIRTQSIHWVRQAPGKGLEWIGDIFPIDGITDYADSVKGRFTISADTSKNTAYLQMNSLRAEDTAVYYCARGSWSWPSGMDHYLDYWGQGTLVTVSS
VL: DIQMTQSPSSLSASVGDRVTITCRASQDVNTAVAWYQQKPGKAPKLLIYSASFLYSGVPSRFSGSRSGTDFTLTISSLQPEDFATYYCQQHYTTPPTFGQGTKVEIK
notes: IgG
B21: MYT4507 (antibody, V domains shown)
VH: EVQLVESGGGLVQPGGSLRLSCAASGFNIRTQSIHWVRQAPGKGLEWIGDIFPIDGITDYADSVKGRFTISADTSKNTAYLQMNSLRAEDTAVYYCARGSWSWPSGMDYYLDYWGQGTLVTVSS
VL: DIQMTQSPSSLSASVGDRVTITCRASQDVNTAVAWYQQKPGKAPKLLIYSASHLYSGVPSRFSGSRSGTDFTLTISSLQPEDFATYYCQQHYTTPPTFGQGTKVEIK
notes: IgG
B22: MYT2266 (antibody, V domains shown)
VH: EVQLVESGGGLVQPGGSLRLSCAASGFNIRTQSIHWVRQAPGKGLEWIGDIFPIDGITDYADSVKGRFTISADTSKNTAYLQMNSLRAEDTAVYYCARGSWSWPSGMDYYHDYWGQGTLVTVSS
VL: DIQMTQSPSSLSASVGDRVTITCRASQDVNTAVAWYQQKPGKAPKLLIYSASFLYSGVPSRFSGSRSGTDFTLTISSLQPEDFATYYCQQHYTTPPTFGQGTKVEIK
notes: IgG
B23: MYT2253 (antibody, V domains shown)
VH: EVQLVESGGGLVQPGGSLRLSCAASGFNIRTQSIHWVRQAPGKGLEWIGDIFPIDGITDYADSVKGRFTISADTSKNTAYLQMNSLRAEDTAVYYCAHGSWSWPSGMDYYLDYWGQGTLVTVSS
VL: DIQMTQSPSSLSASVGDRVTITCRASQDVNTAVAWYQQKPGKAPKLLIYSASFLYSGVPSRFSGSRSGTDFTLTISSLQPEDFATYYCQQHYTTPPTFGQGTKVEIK
notes: IgG
B24: MYT2260 (antibody, V domains shown)
VH: EVQLVESGGGLVQPGGSLRLSCAASGFNIRTQSIHWVRQAPGKGLEWIGDIFPIDGITDYADSVKGRFTISADTSKNTAYLQMNSLRAEDTAVYYCARGSWSWPHGMDYYLDYWGQGTLVTVSS
VL: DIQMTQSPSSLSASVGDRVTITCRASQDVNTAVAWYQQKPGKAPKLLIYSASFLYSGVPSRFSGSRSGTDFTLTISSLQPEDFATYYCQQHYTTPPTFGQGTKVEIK
notes: IgG
B25: MYT4497 (antibody, V domains shown)
VH: EVQLVESGGGLVQPGGSLRLSCAASGFNIRTQSIHWVRQAPGKGLEWIGDIFPIDGITDYADSVKGRFTISADTSKNTAYLQMNSLRAEDTAVYYCARGSWSWPSGMDYYLDYWGQGTLVTVSS
VL: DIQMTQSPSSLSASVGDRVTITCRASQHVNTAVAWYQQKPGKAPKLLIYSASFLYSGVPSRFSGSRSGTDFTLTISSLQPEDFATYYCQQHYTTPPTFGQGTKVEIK
notes: IgG
B26: MYT2255 (antibody, V domains shown)
VH: EVQLVESGGGLVQPGGSLRLSCAASGFNIRTQSIHWVRQAPGKGLEWIGDIFPIDGITDYADSVKGRFTISADTSKNTAYLQMNSLRAEDTAVYYCARGHWSWPSGMDYYLDYWGQGTLVTVSS
VL: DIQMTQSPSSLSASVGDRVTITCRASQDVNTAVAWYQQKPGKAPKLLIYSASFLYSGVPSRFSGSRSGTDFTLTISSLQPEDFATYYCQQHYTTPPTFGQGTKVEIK
notes: IgG
B27: MYT4509 (antibody, V domains shown)
VH: EVQLVESGGGLVQPGGSLRLSCAASGFNIRTQSIHWVRQAPGKGLEWIGDIFPIDGITDYADSVKGRFTISADTSKNTAYLQMNSLRAEDTAVYYCARGSWSWPSGMDYYLDYWGQGTLVTVSS
VL: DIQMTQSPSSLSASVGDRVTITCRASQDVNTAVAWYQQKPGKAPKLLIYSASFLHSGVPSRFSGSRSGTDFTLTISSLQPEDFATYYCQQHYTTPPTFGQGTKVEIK
notes: IgG
B28: MYT2263 (antibody, V domains shown)
VH: EVQLVESGGGLVQPGGSLRLSCAASGFNIRTQSIHWVRQAPGKGLEWIGDIFPIDGITDYADSVKGRFTISADTSKNTAYLQMNSLRAEDTAVYYCARGSWSWPSGMHYYLDYWGQGTLVTVSS
VL: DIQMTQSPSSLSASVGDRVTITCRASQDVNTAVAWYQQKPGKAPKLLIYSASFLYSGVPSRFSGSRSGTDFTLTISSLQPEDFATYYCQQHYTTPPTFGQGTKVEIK
notes: IgG
B29: MYT4504 (antibody, V domains shown)
VH: EVQLVESGGGLVQPGGSLRLSCAASGFNIRTQSIHWVRQAPGKGLEWIGDIFPIDGITDYADSVKGRFTISADTSKNTAYLQMNSLRAEDTAVYYCARGSWSWPSGMDYYLDYWGQGTLVTVSS
VL: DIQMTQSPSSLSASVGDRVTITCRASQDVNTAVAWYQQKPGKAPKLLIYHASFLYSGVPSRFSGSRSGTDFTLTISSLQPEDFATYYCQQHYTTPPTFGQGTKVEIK
notes: IgG
B30: MYT4499 (antibody, V domains shown)
VH: EVQLVESGGGLVQPGGSLRLSCAASGFNIRTQSIHWVRQAPGKGLEWIGDIFPIDGITDYADSVKGRFTISADTSKNTAYLQMNSLRAEDTAVYYCARGSWSWPSGMDYYLDYWGQGTLVTVSS
VL: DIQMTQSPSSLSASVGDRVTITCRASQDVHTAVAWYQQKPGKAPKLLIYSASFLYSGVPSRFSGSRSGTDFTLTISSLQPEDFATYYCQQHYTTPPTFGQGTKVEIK
notes: IgG
B31: MYT4493 (antibody, V domains shown)
VH: EVQLVESGGGLVQPGGSLRLSCAASGFNIRTQSIHWVRQAPGKGLEWIGDIFPIDGITDYADSVKGRFTISADTSKNTAYLQMNSLRAEDTAVYYCARGSWSWPSGMDYYLDYWGQGTLVTVSS
VL: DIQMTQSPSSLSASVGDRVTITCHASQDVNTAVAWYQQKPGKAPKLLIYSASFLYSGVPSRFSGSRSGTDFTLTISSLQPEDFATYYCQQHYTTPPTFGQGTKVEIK
notes: IgG

Molecular target: T1, FOLR1 (R&D Systems, Cat #5646-FR) (human, UniProt P15328 25-233)
T1 construct: Bought soluble protein; also called Folate Receptor 1
T1 sequence (P15328 25-233 limits assumed): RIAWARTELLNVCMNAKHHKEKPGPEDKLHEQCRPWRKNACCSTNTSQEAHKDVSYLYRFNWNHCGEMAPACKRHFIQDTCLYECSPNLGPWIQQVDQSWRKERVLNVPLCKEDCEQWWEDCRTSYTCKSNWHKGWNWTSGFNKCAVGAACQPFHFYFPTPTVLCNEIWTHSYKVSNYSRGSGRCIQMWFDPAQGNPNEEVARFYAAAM
Assay: BLI, IgG on anti-human Fc sensor, 50 nM FOLR1

Binding result, binds:
B1
B2
B3
B4
B5
B6
B7
B8
B9
B10
B11
B12
B13
B14
B15
B16
B17
B18
B19
B20
B21
B22
B23
B24
B25
B26
B27
B28
B29
B30
B31
